From patent US20230235013A1 (MABSOLVE, published 2023)
Where a chain is given by its changes, count along the chain named. Numbers in names are those of the source.

B1: anti-CD20 human IgG1 L234H/L235K/G236R (antibody)
heavy: QVQLQQPGAELVKPGASVKMSCKASGYTFTSYNMHWVKQTPGRGLEWIGAIYPGNGDTSYNQKFKGKATLTADKSSSTAYMQLSSLTSEDSAVYYCARSTYYGGDWYFNVWGAGTTVTVSSASTKGPSVFPLAPSSKSTSGGTAALGCLVKDYFPEPVTVSWNSGALTSGVHTFPAVLQSSGLYSLSSVVTVPSSSLGTQTYICNVNHKPSNTKVDKKVEPKSCDKTHTCPPCPAPEHKRGPSVFLFPPKPKDTLMISRTPEVTCVVVDVSHEDPEVKFNWYVDGVEVHNAKTKPREEQYNSTYRVVSVLTVLHQDWLNGKEYKCKVSNKALPAPIEKTISKAKGQPREPQVYTLPPSRDELTKNQVSLTCLVKGFYPSDIAVEWESNGQPENNYKTTPPVLDSDGSFFLYSKLTVDKSRWQQGNVFSCSVMHEALHNHYTQKSLSLSPGK
light: QIVLSQSPAILSASPGEKVTMTCRASSSVSYIHWFQQKPGSSPKPWIYATSNLASGVPVRFSGSGSGTSYSLTISRVEAEDAATYYCQQWTSNPPTFGGGTKLEIKRTVAAPSVFIFPPSDEQLKSGTASVVCLLNNFYPREAKVQWKVDNALQSGNSQESVTEQDSKDSTYSLSSTLTLSKADYEKHKVYACEVTHQGLSSPVTKSFNRGEC
notes: also called 1-68; copies: 2 + 2
B2: anti-CD20 human IgG1 L234K/L235K/G236R (antibody)
heavy: B1 heavy with H238K
light: B1 light
notes: also called 1-83; copies: 2 + 2
B3: anti-CD20 human IgG1 L234K/L235H/G236R (antibody)
heavy: B1 heavy with H238K, K239H
light: B1 light
notes: also called 1-81; copies: 2 + 2
B4: anti-CD20 human IgG1 L234H/L235R/G236R (antibody)
heavy: B1 heavy with K239R
light: B1 light
notes: also called 1-73; copies: 2 + 2
B5: anti-CD20 human IgG1 L234N/L235N/G236R (antibody)
heavy: B1 heavy with H238N, K239N
light: B1 light
notes: copies: 2 + 2
B6: anti-CD20 human IgG1 L234N/L235R/G236R (antibody)
heavy: B1 heavy with H238N, K239R
light: B1 light
notes: copies: 2 + 2
B7: anti-CD20 human IgG1 L234N/L235S/G236R (antibody)
heavy: B1 heavy with H238N, K239S
light: B1 light
notes: copies: 2 + 2
B8: anti-CD20 human IgG1 L234H/L235T/G236R (antibody)
heavy: B1 heavy with K239T
light: B1 light
notes: also called 1-75; copies: 2 + 2
B9: anti-CD20 human IgG1 L234H/L235M/G236R (antibody)
heavy: B1 heavy with K239M
light: B1 light
notes: also called 1-70; copies: 2 + 2
B10: anti-CD20 human IgG1 L234N/L235E/G236R (antibody)
heavy: B1 heavy with H238N, K239E
light: B1 light
notes: also called 1-94; copies: 2 + 2
B11: anti-CD20 human IgG1 L234N/L235K/G236R (antibody)
heavy: B1 heavy with H238N
light: B1 light
notes: also called 1-98; copies: 2 + 2
B12: anti-CD20 human IgG1 L234N/L235D/G236R (antibody)
heavy: B1 heavy with H238N, K239D
light: B1 light
notes: also called 1-93; copies: 2 + 2
B13: anti-CD20 human IgG1 L234N/L235T/G236R (antibody)
heavy: B1 heavy with H238N, K239T
light: B1 light
notes: copies: 2 + 2
B14: anti-CD20 human IgG1 L234K/L235G/G236R (antibody)
heavy: B1 heavy with H238K, K239G
light: B1 light
notes: also called 1-80; copies: 2 + 2
B15: anti-CD20 human IgG1 L234N/L235I/G236R (antibody)
heavy: B1 heavy with H238N, K239I
light: B1 light
notes: also called 1-97; copies: 2 + 2
B16: anti-CD20 human IgG1 L234H/L235Q/G236R (antibody)
heavy: B1 heavy with K239Q
light: B1 light
notes: also called 1-72; copies: 2 + 2
B17: anti-CD20 human IgG1 L234Q/L235H/G236R (antibody)
heavy: B1 heavy with H238Q, K239H
light: B1 light
notes: also called 2-29; copies: 2 + 2
B18: anti-CD20 human IgG1 L234N/L235V/G236R (antibody)
heavy: B1 heavy with H238N, K239V
light: B1 light
notes: copies: 2 + 2
B19: anti-CD20 human IgG1 L234Q/L235E/G236R (antibody)
heavy: B1 heavy with H238Q, K239E
light: B1 light
notes: copies: 2 + 2
B20: anti-CD20 human IgG1 L234K/L235A/G236R (antibody)
heavy: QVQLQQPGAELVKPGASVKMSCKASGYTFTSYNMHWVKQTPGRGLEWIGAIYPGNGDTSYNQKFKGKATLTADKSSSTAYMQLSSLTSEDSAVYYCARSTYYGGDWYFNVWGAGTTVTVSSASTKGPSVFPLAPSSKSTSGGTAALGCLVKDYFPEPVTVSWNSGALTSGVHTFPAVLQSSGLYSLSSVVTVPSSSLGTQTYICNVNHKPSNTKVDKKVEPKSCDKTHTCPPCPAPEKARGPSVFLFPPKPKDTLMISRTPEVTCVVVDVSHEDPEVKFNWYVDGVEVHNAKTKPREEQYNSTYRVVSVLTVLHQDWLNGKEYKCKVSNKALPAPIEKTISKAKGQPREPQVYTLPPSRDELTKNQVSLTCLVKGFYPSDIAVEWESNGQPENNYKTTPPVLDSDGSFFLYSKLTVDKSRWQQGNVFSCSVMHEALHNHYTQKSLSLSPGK
light: B1 light
notes: also called 1-77; copies: 2 + 2
B21: anti-CD20 human IgG1 L234K/G236R (antibody)
heavy: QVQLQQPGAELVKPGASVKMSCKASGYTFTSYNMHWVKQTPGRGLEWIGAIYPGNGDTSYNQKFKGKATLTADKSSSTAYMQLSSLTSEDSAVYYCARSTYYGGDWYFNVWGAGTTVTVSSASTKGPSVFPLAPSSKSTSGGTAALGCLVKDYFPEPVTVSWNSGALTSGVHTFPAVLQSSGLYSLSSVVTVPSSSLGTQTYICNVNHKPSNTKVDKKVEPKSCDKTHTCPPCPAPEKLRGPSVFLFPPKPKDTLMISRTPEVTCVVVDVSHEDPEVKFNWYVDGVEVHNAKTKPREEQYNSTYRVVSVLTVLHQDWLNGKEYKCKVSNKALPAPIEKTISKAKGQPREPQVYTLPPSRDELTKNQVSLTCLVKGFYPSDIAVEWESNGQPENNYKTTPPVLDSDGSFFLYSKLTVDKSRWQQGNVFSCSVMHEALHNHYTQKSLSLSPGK
light: B1 light
notes: also called 1-84; copies: 2 + 2
B22: anti-CD20 human IgG1 L234Q/L235K/G236R (antibody)
heavy: B1 heavy with H238Q
light: B1 light
notes: copies: 2 + 2
B23: anti-CD20 human IgG1 L234N/G236R (antibody)
heavy: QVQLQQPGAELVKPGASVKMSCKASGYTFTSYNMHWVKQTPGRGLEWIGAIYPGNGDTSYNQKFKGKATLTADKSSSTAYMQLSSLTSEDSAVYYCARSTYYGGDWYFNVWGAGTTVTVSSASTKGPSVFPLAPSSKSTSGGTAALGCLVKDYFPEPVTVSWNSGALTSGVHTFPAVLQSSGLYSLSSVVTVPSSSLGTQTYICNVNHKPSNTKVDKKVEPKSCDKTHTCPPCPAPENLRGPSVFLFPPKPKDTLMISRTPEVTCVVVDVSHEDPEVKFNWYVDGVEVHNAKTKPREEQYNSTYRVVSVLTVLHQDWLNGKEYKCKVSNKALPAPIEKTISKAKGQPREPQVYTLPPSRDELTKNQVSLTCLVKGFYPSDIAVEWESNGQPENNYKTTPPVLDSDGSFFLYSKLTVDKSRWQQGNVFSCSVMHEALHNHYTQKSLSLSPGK
light: B1 light
notes: also called 1-99; copies: 2 + 2
B24: anti-CD20 human IgG1 L234Q/L235I/G236R (antibody)
heavy: B1 heavy with H238Q, K239I
light: B1 light
notes: copies: 2 + 2
B25: anti-CD20 human IgG1 L234K/L235N/G236R (antibody)
heavy: B1 heavy with H238K, K239N
light: B1 light
notes: also called 1-86; copies: 2 + 2
B26: anti-CD20 human IgG1 L234H/L235S/G236R (antibody)
heavy: B1 heavy with K239S
light: B1 light
notes: also called 1-74; 2-21; copies: 2 + 2
B27: anti-CD20 human IgG1 L234K/L235I/G236R (antibody)
heavy: B1 heavy with H238K, K239I
light: B1 light
notes: also called 1-82; copies: 2 + 2
B28: anti-CD20 human IgG1 L234N/L235G/G236R (antibody)
heavy: B1 heavy with H238N, K239G
light: B1 light
notes: also called 1-95; copies: 2 + 2
B29: anti-CD20 human IgG1 L234K/L235Q/G236R (antibody)
heavy: B1 heavy with H238K, K239Q
light: B1 light
notes: also called 1-87; 2-22; copies: 2 + 2
B30: anti-CD20 human IgG1 L234H/L235V/G236R (antibody)
heavy: B1 heavy with K239V
light: B1 light
notes: also called 1-76; copies: 2 + 2
B31: anti-CD20 human IgG1 L234K/L235M/G236R (antibody)
heavy: B1 heavy with H238K, K239M
light: B1 light
notes: also called 1-85; copies: 2 + 2
B32: anti-CD20 human IgG1 L234H/L235N/G236R (antibody)
heavy: B1 heavy with K239N
light: B1 light
notes: also called 1-71; copies: 2 + 2
B33: anti-CD20 human IgG1 L234Q/L235M/G236R (antibody)
heavy: B1 heavy with H238Q, K239M
light: B1 light
notes: also called 1-115; copies: 2 + 2
B34: anti-CD20 human IgG1 L234N/L235H/G236R (antibody)
heavy: B1 heavy with H238N, K239H
light: B1 light
notes: also called 1-96; copies: 2 + 2
B35: anti-CD20 human IgG1 L234N/L235Q/G236R (antibody)
heavy: B1 heavy with H238N, K239Q
light: B1 light
notes: copies: 2 + 2
B36: anti-CD20 human IgG1 L234K/L235E/G236R (antibody)
heavy: B1 heavy with H238K, K239E
light: B1 light
notes: also called 1-79; copies: 2 + 2
B37: anti-CD20 human IgG1 L234N/L235A/G236R (antibody)
heavy: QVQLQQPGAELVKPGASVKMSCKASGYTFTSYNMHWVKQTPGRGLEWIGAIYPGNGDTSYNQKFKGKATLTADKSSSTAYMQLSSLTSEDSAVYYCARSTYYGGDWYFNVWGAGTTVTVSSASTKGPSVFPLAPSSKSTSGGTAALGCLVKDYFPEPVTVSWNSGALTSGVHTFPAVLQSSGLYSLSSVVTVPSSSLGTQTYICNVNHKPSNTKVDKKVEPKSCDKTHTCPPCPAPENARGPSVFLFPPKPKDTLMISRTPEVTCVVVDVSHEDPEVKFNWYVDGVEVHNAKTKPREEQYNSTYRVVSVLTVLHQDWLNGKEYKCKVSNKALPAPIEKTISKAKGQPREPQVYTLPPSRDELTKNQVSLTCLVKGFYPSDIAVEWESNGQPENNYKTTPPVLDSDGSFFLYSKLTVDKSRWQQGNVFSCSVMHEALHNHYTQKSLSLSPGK
light: B1 light
notes: also called 1-92; copies: 2 + 2
B38: anti-CD20 human IgG1 L234Q/L235G/G236R (antibody)
heavy: B1 heavy with H238Q, K239G
light: B1 light
notes: also called 1-110; copies: 2 + 2

target: T1, Histidine-tagged recombinant human FcγRI (CD64) (human, UniProt P12314 16-288); assay: SPR, culture supernatant, captured His-FcγRI;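 further: biacore T200 SPR at 25 °C, anti-His capture, supernatants of HEK293 cells expressing IgG1 Fc variants injected 1 min, reference-subtracted response read 55 s after injection start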
T1 construct: bought; also called Sino Biological Cat. No. 12056-H08H

Mean binding response [RU] | Binder
29.2 | B1
37.6 | B2
25.3 | B3
35.3 | B4
16.9 | B5
30.4 | B6
18.4 | B7
44.9 | B8
31.3 | B9
16.4 | B10
25 | B11
13.4 | B12
8.6 | B13
27.4 | B14
14.1 | B15
33.3 | B16
10 | B17
18.9 | B18
28.8 | B19

Mean binding response [RU] | Binder
23 | B20
31.2 | B21
26.9 | B22
22.3 | B23
34.7 | B24
24.8 | B25
10.9 | B26
30.9 | B27
22.1 | B28
8.4 | B29
25.6 | B30
23.9 | B31
24.6 | B32
38.4 | B33
17.7 | B34
4.5 | B35
29.9 | B36
22.3 | B37
28.1 | B38
